Data taken from publication PMC3236217.
Positions count from the first letter of the chain named. Each block holds one molecule with its values, some of them ahead of it.

What was measured:
inactive ERK2 = inactive ERK2 (UniProt P63086); assay: pull-down; 9 µg active phosphorylated (without or with 1 mM ATP) or inactive ERK2 covalently attached to CNBr-activated Sepharose, 3 µg purified arrestin in 60 µl of 50 mM Tris-HCl pH 7.4, 100 mM KCl, 1 mM EGTA, 1 mM DTT, 20 min at 30°C; two washes; bound arrestin quantified by Western blot
[1] = target: constitutively active MEK1, Q02750
[2] = target: T1, active ERK2 phosphorylated at Thr183 and Tyr185 (PP-ERK2), P63086; assay: pull-down on ERK2-Sepharose (CNBr-activated Sepharose with covalently attached ERK2), bound arrestin quantified by Western blot; details: chain shown with the change, 9 µg immobilised ERK2, 3 µg arrestin in 60 µl, 50 mM Tris-HCl, pH 7.4, 100 mM KCl, 1 mM EGTA, 1 mM DTT, 20 min at 30°C, read off a plot
T1 chain: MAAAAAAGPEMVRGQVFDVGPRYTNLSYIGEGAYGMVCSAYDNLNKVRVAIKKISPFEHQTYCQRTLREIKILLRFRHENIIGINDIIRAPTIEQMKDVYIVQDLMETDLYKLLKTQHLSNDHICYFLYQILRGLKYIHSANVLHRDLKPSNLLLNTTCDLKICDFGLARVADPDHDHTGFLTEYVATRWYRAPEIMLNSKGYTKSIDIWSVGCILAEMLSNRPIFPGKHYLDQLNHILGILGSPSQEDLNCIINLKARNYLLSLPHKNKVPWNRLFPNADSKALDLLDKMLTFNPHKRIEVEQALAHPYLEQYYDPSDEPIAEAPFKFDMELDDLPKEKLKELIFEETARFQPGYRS

inactive ERK2, P63086 = target: T2, inactive ERK2, P63086; assay: as above; details: chain shown with the change; no ATP; 9 µg immobilised ERK2, 3 µg arrestin in 60 µl; 50 mM Tris-HCl, pH 7.4, 100 mM KCl, 1 mM EGTA, 1 mM DTT; 20 min at 30°C; parent: est. 1.6; read off a plot
T2 chain: T1 chain

Molecule: arrestin-2 (from UniProt P17870 1-418) (natural protein)
- binding to inactive ERK2 as percent of that to the active form (inactive ERK2): 33%

B2: arrestin-2, P17870 3A (protein)
chain: MGDKGTRVFKKASPNGKLTVYLGKRDFVDHIDLVEPVDGVVLVDPEYLKERRVYVTLTCAFRYGREDLDVLGLTFRKDLFVANVQSFPPAPEDKKPLTRLQERLIKKLGEHAYPFTFEIPPNLPCSVTLQPGPEDTGKACGVDYEVKAFCAENLEEKIHKRNSVRLVIRKVQYAPERPGPQPTAETTRQFLMSDKPLHLEASLDKEIYYHGEPISVNVHVTNNTNKTVKKIKISVRQYADICLFNTAQYKCPVAMEEADDTVAPSSTFCKVYTLTPFLANNREKRGLALDGKLKHEDTNLASSTLLREGANREILGIIVSYKVKVKLVVSRGGLLGDLASSDVAVELPFTLMHPKPKEEPPHREVPEHETPVDTNLIELDTNDDDAAAEDFARQRLKGMKDDKEEEEDGTGSPRLNDR
- response ([2]; no ATP, parent: est. 4.6): 1.4 pmol
- response ([2]; with 1 mM ATP, parent: est. 3.0): 1.7 pmol
- response (inactive ERK2, P63086): 0.9 pmol

Other lines, results leading:

- increase of ERK2 phosphorylation (32P incorporation) by purified MEK1 in the presence of 4.4 pmol arrestin-3, against no arrestin [1]: 41%
B1: arrestin-3, P32120 1-420 (natural protein)
chain: MGEKPGTRVFKKSSPNCKLTVYLGKRDFVDHLDKVDPVDGVVLVDPDYLKDRKVFVTLTCAFRYGREDLDVLGLSFRKDLFIANYQAFPPTPNPPRPPTRLQERLLRKLGQHAHPFFFTIPQNLPCSVTLQPGPEDTGKACGVDFEIRAFCAKSLEEKSHKRNSVRLVIRKVQFAPEKPGPQPSAETTRHFLMSDRSLHLEASLDKELYYHGEPLNVNVHVTNNSTKTVKKIKVSVRQYADICLFSTAQYKCPVAQVEQDDQVSPSSTFCKVYTITPLLSNNREKRGLALDGKLKHEDTNLASSTIVKEGANKEVLGILVSYRVKVKLVVSRGGDVSVELPFVLMHPKPHDHIALPRPQSAATHPPTLLPSAVPETDAPVDTNLIEFETNYATDDDIVFEDFARLRLKGLKDEDYDDQFC

- increase of ERK2 phosphorylation (32P incorporation) by purified MEK1 in the presence of 4.4 pmol arrestin-2, against no arrestin [1]: 33%
B3: arrestin-2, P17870 1-418 (natural protein)
chain: B2 chain with A386I, A387V, A388F
